B1: Activity-dependent neuroprotector homeobox protein, residues 770 to 810; numbered along this chain, Q9H2P0 (parent)
chain: FLTKYFNKQPYPTRREIEKLAASLWLWKSDIASHFSNKRKK

Variants of: B1
Test: abundance fitness (aPCA) (normalised: wild type 0, dead -1); higher = more abundant; growth selection in yeast, the domain comes from the species named
Settings: Homo sapiens

Abundance fitness, by site and new letter:
S36: Q -0.085; H 0.01; I -0.091; R 0.087; C -0.006; F -0.055; E -0.395; L -0.316; T 0.059
A32: R 0.029; S -0.196; T -0.086; C 0.074; P -0.383
W27: N -0.295; R 0.025; T -0.152; M -0.031; Y -0.227; V -0.061; E -0.74
S23: G -0.182; M -0.36; Y -0.364; H -0.103; D -0.002; C -0.119; R 0.276; Q -0.404; F -0.614; L -0.211; N -0.074
K28: C 0.317; P 0.257; H -0.421; I 0.445; Q -0.184; R -0.188; G 0.048; T 0.18; F 0.435; M 0.438
S33: L -0.154; K 0.044; R 0.032; Y -0.381; Q -0.033; D -0.267; P -0.01; V -0.276; W -0.147
I17: W 0.18; H -0.237; V -0.025; D -0.604; K -0.404; S -0.455
F35: Q -0.238; Y -0.235; H -0.237; N -0.205; G -0.112; A -0.119; P -0.231; T -0.229; S -0.156
K41: V -0.309; R -0.092; Q 0.153; W 0.259; T -0.128; I -0.277; P -0.188; L -0.4; E -0.092; D -0.015; A -0.319; N -0.15
I31: M 0.056; C -0.075; V 0.16; P -0.098; R -0.205; S -0.154; G -0.129; Q -0.116; D 0.022
S29: R -0.088; K 0.208; I 0.031; G -0.014; P 0.229
T13: M 0.28; Q -0.098; L 0.132; F 0.044; H -0.135; D -0.26; V 0.088; S -0.079; E -0.369
L24: F -0.197; V 0.123; P -0.289; C -0.122; R -0.339; S -0.483; T -0.212; K -0.321; G -0.228; A -0.026
A21: I -0.169; G 0.202; C -0.099; H -0.413; Y -0.177; P -0.3; K 0.138; V -0.128; L -0.082
K4: S -0.749; L -1; A -0.735; D -0.644
E18: H -0.257; I -0.749; K 0.172; N -0.213; P -0.189; Q 0.061; W -0.356
L20: E -1.02; C 0.124; N -0.152; P -0.124; V -0.025; A -0.038; S -0.243
H34: K 0.022; M 0.043; P -0.01; V 0.117; Q -0.032; T -0.128; D -0.388; C 0.069; N -0.107; S -0.02; R -0.085
F6: I -0.237; K -0.098; Y -0.295; T -0.328; H -0.794; G -0.442; L -0.157; S -0.76; R -0.163; V -0.369
K19: I -0.686; N -0.144; Q -0.276; Y -0.764; L -0.63; T -0.302; C -0.502
T3: G -0.132; P -0.935; D -0.291; K 0.262; N 0.167; L -0.759; Y -0.619; I -0.475; F -0.613; W -0.786; V -0.544
P10: T 0.011; H -0.153; C 0.011; V 0.062; Y -0.155; K -0.139; S 0.06; L -0.15; A -0.095
W25: E 0.13; F -0.168; V 0.133; A 0.064; L 0.097; N -0.021; Q 0.068
N37: C -0.002; P -0.107; V -0.091; E -0.142; A -0.093; G 0.022; F -0.044
R14: L -0.14; W -0.262; H -0.514; V -0.388; Q -0.265; D -0.826
D30: Y -0.082; L -0.376; R -0.026; G -0.025; A -0.247
R39: E -0.249; M 0.134; F -0.157; L 0.031
E16: M -0.04; F 0.304; V -0.168; P 0.159; R 0.054; T -0.065; D 0.016; S -0.036; W 0.173; K 0.095
L2: C -0.571; A -0.753; Q -0.595; T -0.661; E -1.06; R -0.789; S -0.88; G -0.812; Y -0.248
N7: E -0.058; S -0.107; R -0.174; Y -0.712; P 0.017; C -0.455; I -1.17
P12: R -0.128; L -0.22; S -0.102; A 0.048; Q -0.036; F -0.402; T -0.142; K 0.062; M -0.114; E 0.059
Y11: Q 0.181; L -0.006; A 0.137; C 0.086; H 0.076; D -0.086; P -0.124; S 0.275; F -0.182; T 0.135; W 0.003
F1: G -0.574; M -0.176; T -0.158; K -0.36; L -1.24; D -0.805; N -0.142; S -0.09
K40: A -0.013; I -0.27; D -0.253; S -0.259; N -0.425; G -0.06; T 0.009; L -0.352; V -0.461; M -0.069; C -0.097; W -0.137
Y5: L -0.322; G -0.812; K -0.183; I -0.094
A22: L -0.396; K 0.075; C -0.229; I -0.368; N -0.015; Y -0.303
L26: H 0.253; Q 0.122; R 0.198; Y -0.151; A -0.116; V 0.037; G 0.101; T 0.022
K38: F -0.269; A -0.167; V -0.119; Q -0.216; N -0.298; R -0.115; P -0.206; L -0.197
Q9: E -0.075; N -0.007; A -0.269; D -0.169; F -0.233; V -0.269; L -0.149; Y -0.409
R15: K 0.093; C -0.182; A 0.116; N -0.173; W -0.326; L -0.211; M -0.204; I -0.252; D -0.278
K8: G -0.217; L -1.02; I -1.43; N -0.362; H -1.09; D -0.325; P -1.11; M -0.639; C -1.11
